The assay has as its target T1, B7-H3 (CD276) Protein, Human, Recombinant (His Tag) (Human, UniProt Q5ZPR3 29-461, limits assumed).
T1 construct: Bought protein; also called CD276-His recombinant protein; CD276 recombinant protein; not shown: His tag
T1 sequence (looked up): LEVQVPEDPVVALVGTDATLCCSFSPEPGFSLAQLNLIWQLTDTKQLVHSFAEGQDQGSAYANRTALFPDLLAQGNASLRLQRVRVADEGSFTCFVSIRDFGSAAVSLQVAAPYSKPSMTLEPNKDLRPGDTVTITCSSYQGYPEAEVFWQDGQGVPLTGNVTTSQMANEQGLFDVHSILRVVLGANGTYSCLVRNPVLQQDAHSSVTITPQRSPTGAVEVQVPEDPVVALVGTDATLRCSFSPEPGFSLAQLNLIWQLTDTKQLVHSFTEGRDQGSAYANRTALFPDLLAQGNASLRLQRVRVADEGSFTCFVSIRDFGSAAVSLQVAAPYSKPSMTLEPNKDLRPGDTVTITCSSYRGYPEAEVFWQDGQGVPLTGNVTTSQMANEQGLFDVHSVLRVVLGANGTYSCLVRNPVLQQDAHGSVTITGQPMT
As to the kind of experiment: SPR (BiaCore T200), CD276 recombinant protein amine-coupled on CM5 chip, antibody as analyte.

Substitutions are numbered along the chain they refer to.

B1: CD276T1H1-T1L1 (antibody, V domains shown)
VH: EVQLVESGGGLIQPGGSLRLSCAASGFTFSTYVMSWVRQAPGKGLEWVSSILSGGTSFYADNVKGRFTISRDNSKNTLYLQMNSLRAEDTAVYYCARRYGHDHYYAMDYWGQGTLVTVSS
VL: EIVLTQSPATLSLSPGERATLSCAASSSVSSSYLHWYQQKPGLAPRLLIYSTSNLASGIPDRFSGSGSGTDFTLTISRLEPEDFAVYYCQQYHRSPWTFGGGTKVEIK
notes: Heavy chain variable region cloned into pcDNA3.1-IgG1Fc and light chain variable region into pcDNA3.1-IgKc (IgG1, kappa); also called humanized CD276 antibody (CD276T1H1-T1L1); CD276 humanized antibody
On to B1, for which the dissociation constant (Kd) stood at 114 nM, the off-rate constant (koff) is 0.00282 s⁻¹ and the kon was 24800 M⁻¹ s⁻¹.

B2: CD276T2H1-T2L1 (antibody, V domains shown)
VH: B1 VH with L11V, I12V, Q13R, S74A, T77S, V92L, Y94H, L115T
VL: DIQMTQSPSTLSASVGDRVTITCAASSSVSSSYLHWYQQKPGKAPKLLIYSTSNLASGVPSRFSGSGSGTEFTLTISSLQPDDFATYYCQQYHRSPWTFGQGTKLEIK
notes: Heavy chain variable region cloned into pcDNA3.1-IgG1Fc and light chain variable region into pcDNA3.1-IgKc (IgG1, kappa)
As to B2, the dissociation constant (Kd) stood at 72.8 nM, the koff came to 0.00289 s⁻¹ and the kon worked out at 39700 M⁻¹ s⁻¹.

B3: CD276 Chimeric (antibody, V domains shown)
VH: EVTLVESGGGLVKPGGSLKLSCAASGFTFSTYVMSWVRQTPEKRLEWVASILSGGTSFYADNVKGRFTISRENARNILYLQMSSLKSEDTAMYYCVRRYGHDHYYAMDYWGQGTSVTVSS
VL: QIVLTQSPANMSASLGERVTMTCAASSSVSSSYLHWYQQKPGSSPKLWIYSTSNLASGVPGRFNGSGSGTSYSLTISSMEAEDAATYYCHQYHRSPWTFGGGTKLEIK
notes: Murine variable regions cloned into pcDNA3.1-IgG1Fc (heavy) and pcDNA3.1-IgKc (light); also called human-mouse chimeric antibody; human-murine chimeric antibody
Take B3: the equilibrium dissociation constant (Kd) worked out at 70.8 nM, the koff is 0.00258 s⁻¹ and the association rate constant (kon) worked out at 36400 M⁻¹ s⁻¹.

For the origin of these results see patent US20250002583A1 (PERSONGEN BIOTHERAPEUTICS SUZHOU, published 2025).
